Experimental data as given in US20090075898A1, “Complement C3A Derived Peptides and Uses Thereof” (Yeda Research and Development Co. Ltd. at the Weizmann …, priority 2005, published 2009).

Assays:
[1] = molecular target: T1, FcεRI β-chain (Mus musculus, UniProt P20490); test: Covalent cross linking of C3a to BMMC, immunoprecipitation and Western blot; type: binding; details: C3a 50 μg/ml, BS3 cross linker
T1 construct: endogenous in cells; host or cells: BMMC (bone marrow derived mast cells)
T1 sequence (P20490 1-235): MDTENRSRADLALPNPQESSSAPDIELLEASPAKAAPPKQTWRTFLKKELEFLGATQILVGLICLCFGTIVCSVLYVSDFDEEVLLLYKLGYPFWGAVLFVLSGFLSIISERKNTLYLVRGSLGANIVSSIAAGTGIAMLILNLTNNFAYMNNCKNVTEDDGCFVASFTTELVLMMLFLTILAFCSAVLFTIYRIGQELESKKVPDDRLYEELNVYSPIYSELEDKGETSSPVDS
T1 sequence (P20489 24-250 partner): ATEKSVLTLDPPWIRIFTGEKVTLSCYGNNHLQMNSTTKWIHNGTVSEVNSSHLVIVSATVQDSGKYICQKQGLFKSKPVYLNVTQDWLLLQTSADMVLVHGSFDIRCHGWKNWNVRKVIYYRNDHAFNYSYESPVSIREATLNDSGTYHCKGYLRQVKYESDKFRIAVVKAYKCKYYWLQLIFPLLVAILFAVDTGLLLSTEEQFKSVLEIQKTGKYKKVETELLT
T1 sequence (P20491 19-86 partner): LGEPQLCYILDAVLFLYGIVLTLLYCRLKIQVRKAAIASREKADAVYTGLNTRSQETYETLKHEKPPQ
Procedure: Covalent cross linking of C3a to BMMC. BMMC were washed and incubated with C3a (50 μg/ml per 15−20×10^6 cells/sample, in PBS) for 10 min at room temperature. After another incubation of 20 min at room temperature with 5 mM of the cross linking reagent bis-(sulphosuccinimidyl)-suberate (BS3, PIERCE, Ill., USA) cells were washed and lysed. Polyclonal rabbit antibodies specific to C3a (Behringwerke AG, Germany) were used for immunoprecipitation. Western blotting was carried out by an FcεRI β chain specific antibody kindly provided by Jean Pierre Kinet (Harvard University, Boston, USA). As secondary antibody, HRPO-conjugated goat anti-mouse IgG (DAKO, Frank Diagnosztika Kft, Hungary) was used. Detection was performed by ECL.
Covalent cross-linking of C3a to BMMC. Since no C3a-receptors could be detected on mucosal type mast cells, the possibility that the peptides exert their inhibitory effect via interaction with a different cell membrane component, probably the type 1 Fcε-receptor, was examined. […] Since the ITAM-bearing β-chain had earlier been reported to act as an amplifier of the FcεRI response, the interaction of C3a with this membrane protein on BMMC was determined. Cells were incubated with C3a followed by adding the covalent cross linking agent, BS^3-reagent. […] Protein samples were separated by SDS-PAGE and analyzed by Western-blotting, using FcεRI β-chain specific antibodies.

[2] = molecular target: rat FcεRI β chain (Rattus norvegicus, UniProt P13386); test: Surface plasmon resonance, immobilized extracellular loop peptides of rat FcεRI β chain; details: SPR
[3] = tested on: rat peritoneal mast cells (RPMC); test: Secretory response (β-hexosaminidase release) of rat peritoneal mast cells; type: cell-based
Source text: Rat peritoneal mast cells (RPMC) were isolated as previously described (Kim et al. J. Immunol. 162:4960-4965, […]). Mast cell preparations were ca. 95% pure, as evaluated by flow cytometric monitoring of FcεRI surface expression. Compound 48/80, a specific activator of serosal type mast cells elicited about 50% release of the total β-hexosaminidase content of the isolated rat peritoneal mast cells.
(§1) Secretory response of mast cells.
While mucosal type mast cells are non-responsive to peptidergic stimuli, the serosal type ones have been known for a long time to be stimulated by cationic secretagogues. The anaphylatoxic peptides C3a and C5a initiate the cells' secretory response by binding to their respective receptors expressed by serosal type mast cells. To investigate the effect of the peptides on this mast cell-type, RPMC were used. As expected, these cells did respond to both C5a and C3a (Table 2). However, degranulation was inhibited when peptides C3a7 or C3a9 were added to the IgE-sensitized RPMC and stimulated, 5 min later with a suboptimal antigen dose (Table 2).

[4] = tested on: bone marrow derived mast cells (BMMC); test: Secretory response (β-hexosaminidase release) of bone marrow derived mast cells; type: cell-based, mouse
Procedure: Cells. Bone marrow derived mast cells (BMMC) were prepared from Balb/c mice as described by Nagao et al. (Science 212: 333-335, 1981). After 3 weeks, an approximately 95% pure mast cell population was obtained, showing high expression of FcεRI and stem cell factor receptor (c-kit), as measured by flow cytometry.
as §1
Similar experiments were carried out using bone-marrow derived mast cells (BMMC). […] The control peptide of the sequence DVSNYITR had no effect on either system.

[5] = tested on: RBL-2H3 cells; details: Erdei et al. 1995, 1999; cited from earlier work
[6] = molecular target: human FcεRI β chain (Homo sapiens, UniProt Q01362); test: Surface plasmon resonance, immobilized extracellular loop peptides of human FcεRI β chain; details: SPR

C3a: human complement component C3a, a 77-mer peptide (SEQ ID NO:1), isolated
Cross-linked complex with FcεRI β-chain on BMMC [1]: covalent complex | Interaction with the second extracellular loop of rat FcεRI β chain [2]: No interaction could be detected | Kd ([2]; read-out: Kd, first extracellular loop of rat FcεRI β chain, koff/kon): 520 nM | Stimulation of secretory response of RPMC by the peptide itself ([3]; non-sensitized cells, no antigen): did respond | Inhibitory effect (IC50) on the IgE-mediated degranulation of rat peritoneal mast cells (RPMC) ([3]; suboptimal antigen-dose): Activation* | Inhibition of IgE-mediated secretory response of BMMC [4]: found to inhibit | Inhibition of IgE-mediated degranulation of RBL-2H3 cells (literature) [5]: inhibit | Interaction with the second extracellular loop of human FcεRI β chain [6]: No interaction could be detected | Kd ([6]; read-out: Kd, first extracellular loop of human FcεRI β chain, koff/kon): 250 nM
